According to the supplement of paper PMC10567573:

B1: ZNF8 (parent)
chain: RIHTGERPYMCKECGKAFSQNSSL

Variants of: B1
Experiment: protein stability index of a GFP-peptide fusion (GPS, HEK-293T) (PSI 1-6); higher = more stable
Conditions: c terminus: a fixed tail appended
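Also: lentivirally expressed fusions sorted by FACS into six bins by GFP to DsRed ratio, PSI derived from sequencing read proportions per bin multiplied by bin number.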

Protein stability index: each site, then its substitutions
C14: A 3.1 | E 3.07 | H 2.5 | S 2.74 | G 3.18 | R 2.51 | Q 3 | P 2.99 | K 3.58 | F 2.65 | Y 2.2 | T 2.81 | D 3.48 | W 2.12 | M 2.29 | V 2.72 | I 1.93 | N 3.15 | L 2.42
K12: E 2.9 | H 1.96 | V 2.07 | P 2.54 | W 1.51 | R 1.99 | S 2.46 | G 2.38 | L 1.72 | A 3.12 | D 3.02 | N 2.66 | I 2.17 | Q 2.11 | T 2.15 | C 2.16 | M 2.52 | Y 2.27 | F 1.8
G15: E 3.46 | H 2.32 | D 3.25 | T 3.05 | F 2.09 | V 2.33 | C 2.16 | M 2.67 | P 2.54 | Q 3.26 | K 2.99 | Y 1.62 | A 3.37 | I 1.98 | L 3.05 | R 2.76 | N 2.33 | S 3.2
S19: Q 2.77 | I 2.01 | L 3.17 | P 1.81 | W 1.47 | Y 2.18 | D 3.09 | K 2.27 | V 2 | N 2.31 | C 3.28 | M 2.24 | R 1.91 | A 2.66 | F 2.02 | H 2.8 | G 2.6 | E 3.26 | T 2.35
K16: Y 1.61 | F 2.52 | D 2.52 | H 2.29 | A 2.24 | T 2.73 | R 2.3 | P 2.06 | L 1.71 | Q 2.27 | I 2.08 | S 2.05 | E 2.97 | N 1.8 | V 1.71 | M 2.63 | W 2.66 | G 2.41 | C 1.82
A17: W 2.65 | I 2.41 | M 2.67 | D 2.84 | V 3.24 | E 2.95 | N 2.99 | T 3.29 | Y 2.37 | R 3.04 | F 2.42 | L 2.47 | H 2.42 | S 2.94 | Q 3.01 | C 2.46 | P 2.09 | K 3 | G 2.42
F18: M 2.76 | V 2.83 | C 3.03 | R 3.25 | G 3.35 | S 3.57 | K 3.29 | T 2.85 | Y 2.39 | D 3.84 | A 2.93 | W 1.99 | P 3.45 | H 3.59 | I 2.53 | L 2.44 | N 3.83 | Q 2.79 | E 3.64
Q20: G 2.83 | F 1.83 | S 2.2 | P 2.74 | I 2.4 | H 2.49 | T 2.61 | L 2.1 | A 2.65 | N 2.72 | C 2.54 | D 2.37 | E 3.19 | K 2.94 | R 2.54 | M 2.21
C11: Y 2.28
E13: F 1.59 | L 2.3 | S 1.95 | G 1.94 | K 1.78 | R 1.87 | H 2.14 | P 2.07 | C 1.85 | D 1.39 | Q 2.24 | A 2.08 | M 2.05 | T 1.96 | I 1.88 | Y 1.92 | N 2.35 | V 2.1
